Results taken from paper doi:10.1101/284836.

Columns and labels:
[1] = system: EcCRP-HIS (Escherichia coli); assay: EMSA
[2] = system: HiCRP-HIS (Haemophilus influenzae); assay: EMSA

| Substance | binding signal [1] | binding signal [2] |
| --- | --- | --- |
| pilA-N promoter (CRP-N), Fig. 3 bait | 77 % shifted | 6 % shifted |
| pilA promoter (CRP-S), Fig. 3 bait | 30 % shifted | – |
